# Measurements reported in doi:10.1101/2020.05.06.080622.
# Like-named read-outs stand apart in the source and are kept apart here.
# T1: G4P (HIS-G4P-3xFLAG) (artificial (RHAU-derived), UniProt Q9H2U1 53-75+=GTGSGAGTGSGAGTGSGA+53-75, internal_change)
# T1 sequence: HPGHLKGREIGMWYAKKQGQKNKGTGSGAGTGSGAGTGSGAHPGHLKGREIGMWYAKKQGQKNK
# Legend:
# Test in all cases: EMSA
# G4P (HIS-G4P-3xFLAG) [1] = target: T1, G4P (HIS-G4P-3xFLAG)
# G4P (HIS-G4P-3xFLAG) [2] = target: T1, G4P (HIS-G4P-3xFLAG); remark: listed apart in the source
# G4P (HIS-G4P-3xFLAG) [3] = target: T1, G4P (HIS-G4P-3xFLAG); remark: listed apart in the source
binder,measurement,setting,value
dsCSTB (dsDNA) DNA 1: CCTGAAGCAGACAGCTAGTGAATTCGGGGCGGGGCGCGGGGCGGGGTACTTGCGTATAACTGTTCCATAGT DNA 2: ACTATGGAACAGTTATACGCAAGTACCCCGCCCCGCGCCCCGCCCCGAATTCACTAGCTGTCTGCTTCAGG,binding result,G4P (HIS-G4P-3xFLAG) [1],binds
AAGGGAGGGCGGCGGGGCAGGGA (structured_DNA) [PDGFR-β],binding result,G4P (HIS-G4P-3xFLAG) [2],binds
GGGGCCGGGGCCGGGGCCGGGGCC (structured_DNA) [C9orf72],binding result,G4P (HIS-G4P-3xFLAG) [3],binds
